Results: paper PMC7948536

How the values were obtained:
[1] = target: E3 SCF^βTrCP (neddylated; Skp1–βTrCP with Nedd8–ROC1–CUL1) (UniProt P63208)
[2] = target: E3 SCF^βTrCP (neddylated; Skp1–βTrCP with Nedd8–ROC1–CUL1) (UniProt P63208); remark: listed apart in the source
[3] = target: E3 SCF^βTrCP (neddylated; Skp1–βTrCP with Nedd8–ROC1–CUL1) (UniProt P63208); remark: listed apart in the source

- real-time FRET IκBα diubiquitination, 30 °C, 30 min; conversion of substrate by gel analysis (Fig. 3A, B) [1]: 85%
- real-time FRET IκBα diubiquitination under single-round turnover condition (preformed complexes treated with apyrase) (Fig. 4) [2]: 20%
- FRET IκBα diubiquitination in test tube, time course to 10 min: IκBα–Ub2 product by gel, FRET signal rising alike (Fig. 2A) [3]: > 30%
Substance: IκBα (EE)–Ub (E64C)–I647 (from UniProt P25963 1-20; P0CG48 1-74; P25963 23-54)
